# Measurements as given in patent US20200282010A1, “IMMUNOGENIC COMPOSITIONS AND USES THEREFOR” (Epiaxis Therapeutics Pty Ltd, priority 2017, published 2020).
# How the values were obtained:
# PKC-β2 = target: T1, PKC-β2 (Homo sapiens, UniProt P05771); assay: Nuclear localization of PKC-β2 (Fn/c, immunofluorescence), specificity; type: cell-based; details: MCF7 breast cancer cell line; FIG. 1D
# T1 construct: endogenous in cells; host or cells: MCF7
# From the text: (§1) FIG. 1 is a graphical, schematic and photographic representation showing that PKC-θ can be targeted for therapeutic intervention. A) Depicts the strength of binding of recombinant purified His6-PKC-θ to increasing concentrations of different subunits and subunit combinations (α2, α2β1, and β1) of the importin α/β heterodimer nuclear transport receptor using an AlphaScreen® binding assay as described in Wagstaff et al. (2011. Journal of Biomolecular Screening 16 (2):192-200). B-C) Depicts protein structure of PKC-θ indicating binding locations for the PKC-θ peptide inhibitor, PKCθi (RKEIDPPFRPKVK), including the nuclear localization sequence (NLS) of PKC-θ. D) The specificity of PKCθi was examined on cells treated with this peptide inhibitor. Cells were screened with primary antibodies to PKC-θ (T538p), PKC-β2, PKC-β1, PKC-α, PKC-ε and PKC-γ. The nuclear to cytoplasmic fluorescence ratio (Fn/c) using the equation: Fn/c=(Fn−Fb)/(Fc−Fb), where Fn is nuclear fluorescence, Fc is cytoplasmic fluorescence, and Fb is background fluorescence was used to determine the impact on nuclear translocation/localization. […] EC^50 of inhibitors calculated using GraphPad PRISM software. F) The PKC-θ kinase activity was measured using the PKC kinase activity kit from ENZO life sciences and recombinant PKC-θ; C27 is an inhibitor of PKC-θ kinase activity, which is disclosed in Jimenez et al. (2013. […]
# PKC-β1 = target: T2, PKC-β1 (Homo sapiens, UniProt P05771); assay: Nuclear localization of PKC-β1 (Fn/c, immunofluorescence), specificity; type: cell-based; details: MCF7 breast cancer cell line; FIG. 1D
# T2 construct: endogenous in cells; host or cells: MCF7
# From the text: as §1
# PKC-α = target: T3, PKC-α (Homo sapiens, UniProt P17252); assay: Nuclear localization of PKC-α (Fn/c, immunofluorescence), specificity; type: cell-based; details: MCF7 breast cancer cell line; FIG. 1D
# T3 construct: endogenous in cells; host or cells: MCF7
# From the text: as §1
# PKC-γ = target: T4, PKC-γ (Homo sapiens, UniProt P05129); assay: Nuclear localization of PKC-γ (Fn/c, immunofluorescence), specificity; type: cell-based; details: MCF7 breast cancer cell line; FIG. 1D
# T4 construct: endogenous in cells; host or cells: MCF7
# From the text: as §1
# recombinant PKC-θ = recombinant PKC-θ (Homo sapiens, UniProt Q04759); assay: PKC-θ kinase activity (PKC kinase activity kit, ENZO life sciences); type: biochemical; details: FIG. 1F
# From the text: as §1
# [1] = system: CD8^+ T-cells of melanoma patient liquid biopsies; assay: Immunofluorescence of EOMES, TBET and PD-1 (exhaustion signature) in patient CD8+ T-cells; type: cell-based, human; details: CR, SD and PD cohorts, vehicle or PMA/CI, FIG. 4
# From the text: FIG. 4 is graphical representation showing expression of EOMES, TBET and PD-1 in CD8^+ T-cells of melanoma patient liquid biopsies in the presence and absence of PKCθi peptide inhibitor. A) CD8^+ T-cells were isolated from melanoma patient liquid biopsies (CR=complete response, SD=Stable Disease, PD=progression of disease) and were stimulated with PMA/CI and pre-clinically screened with either vehicle control or PKCθi peptide inhibitor. Samples were then fixed and immunofluorescence microscopy was performed on these cells with primary antibodies for EOMES, TBET, and PD-1. Representative images for each dataset are shown. Graph represents the TCFI for PD1, TNFI for EOMES and TNFI for TBET measured using ImageJ to select the nucleus minus background (n=>20 cells/sample). Graphs depicting the % inhibition or induction based on protein expression where also plotted for each protein target relative to untreated sample.
# Metastatic Melanoma Biopsies were pre-enriched using the RosetteSep™ method to isolate CTCs by employing the RosetteSep™ Human CD8 enrichment Kit (15063, StemCell Technologies) to isolate CD8+ cells and red blood cells, using density gradient centrifugation with SepMate™-50 (IVD) density gradient tubes (85450, StemCell Technologies) and Lymphoprep™ density gradient medium (07861, StemCell Technologies). […] Digital images were analysed using ImageJ software (ImageJ, NIH, Bethesda, Md., USA) to determine the either the Total Nuclear Fluorescent Intensity (TNFI), the Total Cytoplasmic Fluorescent Intensity (TCFI) or total Fluorescent Intensity (TFI). The plot-profile feature of ImageJ was used to plot the fluorescence signal intensity along a single line spanning the nucleus (n=5 lines per a nucleus, 5 individual cells) using the average fluorescent signal intensity for the indicated pair of antibodies was plotted for each point on the line with SE. […] For each plot-profile the PCC was determined. […]
# T2 sequence (P05771 whole entry): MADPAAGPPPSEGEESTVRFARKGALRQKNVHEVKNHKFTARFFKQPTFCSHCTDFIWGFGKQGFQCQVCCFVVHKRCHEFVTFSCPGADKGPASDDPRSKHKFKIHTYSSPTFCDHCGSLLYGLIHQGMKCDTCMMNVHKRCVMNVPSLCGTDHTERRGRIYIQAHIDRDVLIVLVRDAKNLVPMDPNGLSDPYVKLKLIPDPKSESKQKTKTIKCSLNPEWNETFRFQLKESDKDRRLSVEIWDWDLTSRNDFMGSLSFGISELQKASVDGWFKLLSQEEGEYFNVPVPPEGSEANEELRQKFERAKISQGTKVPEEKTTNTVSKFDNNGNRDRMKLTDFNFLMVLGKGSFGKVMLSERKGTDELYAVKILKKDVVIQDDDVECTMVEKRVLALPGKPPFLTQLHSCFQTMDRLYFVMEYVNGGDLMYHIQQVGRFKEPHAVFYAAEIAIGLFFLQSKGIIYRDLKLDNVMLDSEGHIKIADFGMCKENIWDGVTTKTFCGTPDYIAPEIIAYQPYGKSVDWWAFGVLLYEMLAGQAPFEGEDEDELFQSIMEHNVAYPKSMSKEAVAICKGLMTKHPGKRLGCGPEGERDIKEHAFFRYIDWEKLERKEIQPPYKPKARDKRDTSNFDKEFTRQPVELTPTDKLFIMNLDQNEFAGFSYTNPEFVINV
# recombinant PKC-θ, sequence (Q04759 whole entry): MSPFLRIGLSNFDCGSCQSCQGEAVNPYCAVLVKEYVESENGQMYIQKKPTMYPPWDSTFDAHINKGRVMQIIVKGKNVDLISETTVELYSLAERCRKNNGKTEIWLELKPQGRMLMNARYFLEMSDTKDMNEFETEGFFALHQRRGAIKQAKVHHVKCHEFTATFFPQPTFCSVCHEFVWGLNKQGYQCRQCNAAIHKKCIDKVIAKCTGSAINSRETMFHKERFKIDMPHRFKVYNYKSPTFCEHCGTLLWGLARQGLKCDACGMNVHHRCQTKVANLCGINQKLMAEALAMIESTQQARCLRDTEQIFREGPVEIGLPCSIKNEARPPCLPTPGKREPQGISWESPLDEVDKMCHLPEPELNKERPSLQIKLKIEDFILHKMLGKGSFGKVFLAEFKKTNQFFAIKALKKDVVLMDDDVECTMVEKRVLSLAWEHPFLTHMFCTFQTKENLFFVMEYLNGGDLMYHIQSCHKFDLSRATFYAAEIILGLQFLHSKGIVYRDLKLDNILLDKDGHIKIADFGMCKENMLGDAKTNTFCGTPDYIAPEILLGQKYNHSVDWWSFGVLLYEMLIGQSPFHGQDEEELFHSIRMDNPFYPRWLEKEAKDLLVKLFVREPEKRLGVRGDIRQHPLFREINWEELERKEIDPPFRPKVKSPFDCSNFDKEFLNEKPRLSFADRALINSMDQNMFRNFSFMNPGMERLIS
# T1 sequence (P05771 1-673 isoform P05771-2): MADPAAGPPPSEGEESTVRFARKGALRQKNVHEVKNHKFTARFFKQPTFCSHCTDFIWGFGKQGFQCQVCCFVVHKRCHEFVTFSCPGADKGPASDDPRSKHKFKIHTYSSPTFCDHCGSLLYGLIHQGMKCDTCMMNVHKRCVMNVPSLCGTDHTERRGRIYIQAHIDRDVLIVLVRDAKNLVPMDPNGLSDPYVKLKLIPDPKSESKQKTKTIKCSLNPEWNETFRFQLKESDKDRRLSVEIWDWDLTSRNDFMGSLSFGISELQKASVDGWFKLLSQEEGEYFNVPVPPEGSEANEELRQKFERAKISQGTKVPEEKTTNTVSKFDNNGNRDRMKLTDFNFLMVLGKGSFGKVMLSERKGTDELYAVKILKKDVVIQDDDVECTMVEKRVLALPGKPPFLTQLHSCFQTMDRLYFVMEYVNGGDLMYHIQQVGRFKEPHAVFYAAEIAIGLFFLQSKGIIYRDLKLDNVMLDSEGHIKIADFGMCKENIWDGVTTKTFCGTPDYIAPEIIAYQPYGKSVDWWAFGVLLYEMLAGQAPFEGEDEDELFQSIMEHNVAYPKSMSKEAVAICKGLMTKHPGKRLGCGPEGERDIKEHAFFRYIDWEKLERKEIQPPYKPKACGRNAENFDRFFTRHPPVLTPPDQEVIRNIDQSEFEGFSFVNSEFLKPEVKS
sequence,measurement,setting,value
RKEIDPPFRPKVK [PKCθi],nuclear localization of PKC-β2,PKC-β2,no effect
same,nuclear localization of PKC-β1,PKC-β1,no effect
same,nuclear localization of PKC-α,PKC-α,no effect
same,nuclear localization of PKC-γ,PKC-γ,no effect
same,PKC-θ catalytic activity,recombinant PKC-θ,without impacting
same,TBET expression,[1],enhancing
same,expression of EOMES,[1]; inhibitor 8 mm,inhibiting expression
same,expression of PD-1,[1]; inhibitor 8 mm,inhibiting expression
